Laboratory results reported in the supplement of paper PMC10201428.
± gives the standard deviation of the averaged measurements.

These sequences were tested on VchCAST RNA-guided transposition machinery (E. coli BL21(DE3) host, lacZ target) (assay: relative integration efficiency (T-RL orientation) vs wild-type transposon end (log2 (normalized fold change)); transposon end mutated: right end (5 bp flank + 75 bp right end); higher = more efficient transposition).
Summary of the method: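 Barcoded pools of 1549 left-end or 1849 right-end transposon variants were cloned into a pUC57 mini-transposon donor. Each pool was co-transformed with a T7-driven effector plasmid (CRISPR array, tniQ-cas8-cas7-cas6, tnsA-tnsB-tnsC) into E. coli BL21(DE3) and plated with 0.1 mM IPTG at 37°C for 18 h. Input plasmids and genomic integration junctions were PCR-amplified and Illumina-sequenced, with two biological output replicates and four wild-type barcodes as reference. Relative integration efficiency is output/input barcode abundance fold change, normalised to wild-type barcodes and log-transformed.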

| Sequence | relative integration efficiency (log2) |
| --- | --- |
| ACATTTGTTGATACAACCATAAAATGATAATATGTCCCATAAATTGATAATTATCACACCCATAAATTGATATTGCCTCTGATCATAGTCAGACCAACATTGCTACGACCCGTATTCGCACCGACAC | -1.29 ± 0.17 |
| ACATTTGTTGATACACCCATAAATTGATAATTACAACCATAAAGTGATATTTATCACAACCATAAAATGATAATTACTCTGATCATAGTCAGACCAACATTGCTACGACCCGTATTCGCACCGACAC | -0.58 ± 0.22 |
| ACATTTGTTGATACAACCATAAAATGATAATTACACCCATAAATTGATAATTATCACACCCATAAATTGATATTGCCTCTGTTGGCGCCCGGCCCTCAGGCCCTGCAGTGAGTTCCAGCACCGACAC | 0.121 ± 0.15 |
| ACATTTCTTCATACAACCATAAAATGATAATTACACCCATAAATTGATCATTATCACACCCAATTTAACTATAACGCTCTGATCATAGTCAGACCAACATTGCTACGACCCGTATTCGCACCGACAC | -4.44 ± 0.65 |
| ACATTTGTGGATACAACCATAAAACGATAATTACACCCATAAATTCATAATTATCACACCCAATTTAACTATAACGCTCTGATCATAGTCAGACCAACATTGCTACGACCCGTATTCGCACCGACAC | -2.15 ± 0.21 |
| ACATTTGTTGATACAACCATAAAATGATAATTAATAATTATTTATAATCACACCCATAAATTGATAATTATCAACAAACGCCCGGTCGCGGTACTCTGATCATAGTCAGACCAACATTGCTACGACC | -2.09 ± 0.28 |
| ACATTTGTCGATACAACCATAAAATGATAATTACACCCATAAATTCATCATTATCACACCCAATTTAACTATAACGCTCTGATCATAGTCAGACCAACATTGCTACGACCCGTATTCGCACCGACAC | -2.26 ± 0.23 |
| ACATTTGTTGATACAACCTATTAATGATAATTACACCCATAAATTGATAATTATCACACCCATAAATTGATATTGCCTCTGATCATAGTCAGACCAACATTGCTACGACCCGTATTCGCACCGACAC | -0.905 ± 0.052 |
| ACATTTGTTGATACAACCATATATTGATATCTCCACCCATAAATTGATATTGCTCACAACCATAAGTTGATATTTTCTCTGATCATAGTCAGACCAACATTGCTACGACCCGTATTCGCACCGACAC | -0.57247 ± 9.5e-05 |
| CACGGTGTTGATACAACCATAAAATGATAATTACACCCATAAATTGATAATTATCACACCCATAAATTGATATTGCCTCTGATCATAGTCAGACCAACATTGCTACGACCCGTATTCGCACCGACAC | -0.141 ± 0.051 |
| ACATTTGTTGATACAACCATAAAATGATAATATCACCCATAAATTGATAATTATCACACCCATAAATTGATATTGCCTCTGATCATAGTCAGACCAACATTGCTACGACCCGTATTCGCACCGACAC | -0.188 ± 0.066 |
| ACATTTGTTGATACAACCATAAAATGATAATTACACCCATAAATTGATAATTATCACACCCATAAATTGATATTGCCTCTGACAACCATAAAATGATAATTATCATAGTCAGACCAAGCACCGACAC | -0.213 ± 0.28 |
| ACATTAGTTGATACAACCATAAAATGATAATTACACCCATAAATTCATAATTATCACACCCAATTTAACTATAACGCTCTGATCATAGTCAGACCAACATTGCTACGACCCGTATTCGCACCGACAC | -6.87 ± 0.4 |
| ACATTTGTTGATACAACCATAAAAGGATAATTACACCCATCAATTGATAATTATCACACCCAATTTAACTATAACGCTCTGATCATAGTCAGACCAACATTGCTACGACCCGTATTCGCACCGACAC | -2.32 ± 0.29 |
| ACATTTGTAAATAAAACCATACGTTGATTTTACGAAACCATACGCTGAAATAATCACACCCATAAATTGATATTGCCTCTGATCATAGTCAGACCAACATTGCTACGACCCGTATTCGCACCGACAC | -6.595 ± 0.05 |
| ACATTTGTTGATACAACCATAAAATGATAATTACACCCATAAATTGATAATTATCACACCCATAAATTGATATTGCCTCTTCATGGTCTAAACTTCAGTTTCAAATGCTGATTTTCAGCACCGACAC | 0.164 ± 0.26 |
| ACATTTGTGGATACAACCATAAAATGATAATTACACCCATAAATTCATTATTATCACACCCAATTTAACTATAACGCTCTGATCATAGTCAGACCAACATTGCTACGACCCGTATTCGCACCGACAC | -2.59 ± 0.53 |
| ACATTGGTTCATACAACCATAAAATGATAATTACACCCATAAATTGATAATTATCACACCCAATTTAACTATAACGCTCTGATCATAGTCAGACCAACATTGCTACGACCCGTATTCGCACCGACAC | -7.42 ± 0.14 |
| ACATTTGTTGATACAACCATAAAATGGTAATTCCACCCATACATTGATAATTATCACACCCAATTTAACTATAACGCTCTGATCATAGTCAGACCAACATTGCTACGACCCGTATTCGCACCGACAC | -3.15 ± 0.33 |
| ACATTTGTTGATACAACCATAAAATGATAATTACACCCATAATAACATAATTATCACACCCATAAATTGATATTGCCTCTGATCATAGTCAGACCAACATTGCTACGACCCGTATTCGCACCGACAC | -2.11 ± 0.092 |
| ACATTTGTTGATACAACGTATAAATGATAATTACACCCATAAATTGATAATTATCACACCCATAAATTGATATTGCCTCTGATCATAGTCAGACCAACATTGCTACGACCCGTATTCGCACCGACAC | -1.91 ± 0.13 |
| ACATTTGTTGATACAACCATAAAATGATAATTACACCCATAAATTGATAATTAGACACAAACGCCCGGTCGCGGTAAGAGGATCATAGTCAGACCAACATTGCTACGACCCGTATTCGCACCGACAC | -0.538 ± 0.21 |
| ACATTTGCTGATAGAACCATATAATGATAATAACACCAATAAAATGATAATTATCACACCCAATTTAACTATAACGCTCTGATCATAGTCAGACCAACATTGCTACGACCCGTATTCGCACCGACAC | -3.5 ± 0.17 |
| ACATTTGTCGATACAACCCTAAAATGATAATTACACCCATAAATGGATCATTATCACACCCAATTTAACTATAACGCTCTGATCATAGTCAGACCAACATTGCTACGACCCGTATTCGCACCGACAC | -4.03 ± 0.13 |
| ACATTTGTTGATACAACCAATAAATGATAATTACACCCATAAATTGATAATAATGACACCGAATTTAACTATAACGCTCTGATCATAGTCAGACCAACATTGCTACGACCCGTATTCGCACCGACAC | -1.44 ± 0.28 |
